Results: patent publication US20030175848A1, “Substituted dithiobisnitrobenzenes and their applications” (Institut Pasteur De Lille, priority 1998, published 2003)

Substrate: CN(C)CCCNC(=O)c1cc(SSc2ccc([N+](=O)[O-])c(C(=O)NCCCN(C)C)c2)ccc1[N+](=O)[O-]
Assay: purified protein, by the assay type
Details: other: substrate of recombinant TcTR, 25° C., buffer A pH 7.25, 0.2 mM NADPH, * = estimated at low substrate concentrations (15-200 μM), inhibition effects
Protocol: The TcTR concentration is determined by measuring the number of subunits containing FAD at 461 nm (ε=11.3 mM^−1×cm^−1); the enzymatic activity is tested as specified in (28). One TR unit corresponds to 1 μmol of T(S)2 reduced per minute at 25° C. in a buffer A (20 mM Hepes, pH 7.25 containing 1 mM EDTA and 0.15 M KCl).
The enzyme stock solutions used for the kinetic determinations are pure (verification in SDS-PAGE) and have a specific activity of 137 U/mg in the T(S)2 reduction test performed in the presence of 500 μM NADPH and 518 μM T(S)2 in a buffer A.
All the kinetic studies are carried out in the same buffer at 25° C., in the presence of 200 μM of NADPH.
All the tests were carried out at 25° C. in 20 mM HEPES, 1 Mm EDTA, 150 mM KCl, at pH 7.25 (buffer A) and in the presence of 0.2 mM NADPH.

B1: trypanothione reductase from Trypanosoma cruzi (TcTR) (Trypanosoma cruzi) (protein)
chain: MMSKIFDLVVIGAGSGGLEAAWNAATLYKKRVAVIDVQMVHGPPFFSALGGTCVNVGCVPKKLMVTGAQYMEHLRESAGFGWEFDRTTLRAEWKKLIAVKDEAVLNINKSYEEMFRDTEGLEFFLGWGSLESKNVVNVRESADPASAVKERLETENILLASGSWPHMPNIPGIEHCISSNEAFYLPEPPRRVLTVGGGFISVEFAGIFNAYKPKDGQVTLCYRGEMILRGFDHTLREELTKQLTANGIQILTKENPAKVELNADGSKSVTFESGKKMDFDLVMMAIGRSPRTKDLQLQNAGVMIKNGGVQVDEYSRTNVSNIYAIGDVTNRVMLTPVAINEAAALVDTVFGTNPRKTDHTRVASAVFSIPPIGTCGLIEEVASKRYEVVAVYLSSFTPLMHNISGSKYKTFVAKIITNHSDGTVLGVHLLGDNAPEIIQGVGICLKLNAKISDFYNTIGVHPTSAEELCSMRTPSYYYVKGEKMEKPSEASL
B1 was tested, and the Km was 35 µM, the kcat was 125 s⁻¹ and the kcat/Km was 3.6e+06 M⁻¹ s⁻¹.
